Data as given in PMC7159994.

Biological target: GST-IRP2Δ73 (human) (UniProt P48200)
Assay: AlphaScreen or HTRF

“FBXL5C492Δ-SKP1 complex (tag-free) (from UniProt Q9UKA1 200-691; P63208 1-163)” gave an IC50 of 120 pM.
